For this assay, the target named is T1, His-tagged OGT (human, UniProt O15294 1-1046).
T1 construct: OGT, human, full length; Vector pet28a; also called His-OGT; pet28a-OGT; source: E. coli, purified
T1 sequence (looked up): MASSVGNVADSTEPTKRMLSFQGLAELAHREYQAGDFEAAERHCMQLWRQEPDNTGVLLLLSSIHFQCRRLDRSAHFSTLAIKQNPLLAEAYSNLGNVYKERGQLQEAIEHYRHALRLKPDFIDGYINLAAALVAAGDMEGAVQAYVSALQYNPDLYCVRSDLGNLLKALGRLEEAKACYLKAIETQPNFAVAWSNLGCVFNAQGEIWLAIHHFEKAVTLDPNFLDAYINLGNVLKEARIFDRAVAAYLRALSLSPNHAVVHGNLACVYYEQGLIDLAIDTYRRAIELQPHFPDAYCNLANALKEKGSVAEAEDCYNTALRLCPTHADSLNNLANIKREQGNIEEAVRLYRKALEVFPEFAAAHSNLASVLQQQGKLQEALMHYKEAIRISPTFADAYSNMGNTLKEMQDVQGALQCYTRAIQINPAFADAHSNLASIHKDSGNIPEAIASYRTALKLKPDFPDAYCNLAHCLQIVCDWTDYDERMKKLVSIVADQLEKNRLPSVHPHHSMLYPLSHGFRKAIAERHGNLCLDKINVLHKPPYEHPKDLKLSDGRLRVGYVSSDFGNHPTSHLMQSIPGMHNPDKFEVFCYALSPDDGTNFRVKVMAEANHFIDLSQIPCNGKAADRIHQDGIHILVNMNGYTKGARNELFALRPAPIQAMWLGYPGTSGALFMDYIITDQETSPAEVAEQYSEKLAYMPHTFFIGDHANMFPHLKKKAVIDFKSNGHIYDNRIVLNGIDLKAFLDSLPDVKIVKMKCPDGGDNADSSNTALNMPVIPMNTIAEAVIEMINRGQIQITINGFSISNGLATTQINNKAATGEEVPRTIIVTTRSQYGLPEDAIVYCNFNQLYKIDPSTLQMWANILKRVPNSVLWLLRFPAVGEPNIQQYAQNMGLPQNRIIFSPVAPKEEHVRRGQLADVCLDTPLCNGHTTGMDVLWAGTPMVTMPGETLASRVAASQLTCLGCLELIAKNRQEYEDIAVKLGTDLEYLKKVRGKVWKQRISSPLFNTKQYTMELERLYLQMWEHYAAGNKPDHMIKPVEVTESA
The assay can be described thus: pull-down; GST pull-down: His-tagged OGT incubated with wild-type GST-tagged FOXP1 or its mutant lacking AA 556–610, glutathione beads, immunoblot. The conditions noted are these: both partners purified. A general note: A western blot detects proteins with antibodies after separation by electrophoresis.

B1: GST-tagged FOXP1 (wild type, full length) (natural protein, human, UniProt Q9H334 1-677, looked up)
chain: MMQESGTETKSNGSAIQNGSGGSNHLLECGGLREGRSNGETPAVDIGAADLAHAQQQQQQALQVARQLLLQQQQQQQVSGLKSPKRNDKQPALQVPVSVAMMTPQVITPQQMQQILQQQVLSPQQLQVLLQQQQALMLQQQQLQEFYKKQQEQLQLQLLQQQHAGKQPKEQQQVATQQLAFQQQLLQMQQLQQQHLLSLQRQGLLTIQPGQPALPLQPLAQGMIPTELQQLWKEVTSAHTAEETTGNNHSSLDLTTTCVSSSAPSKTSLIMNPHASTNGQLSVHTPKRESLSHEEHPHSHPLYGHGVCKWPGCEAVCEDFQSFLKHLNSEHALDDRSTAQCRVQMQVVQQLELQLAKDKERLQAMMTHLHVKSTEPKAAPQPLNLVSSVTLSKSASEASPQSLPHTPTTPTAPLTPVTQGPSVITTTSMHTVGPIRRRYSDKYNVPISSADIAQNQEFYKNAEVRPPFTYASLIRQAILESPEKQLTLNEIYNWFTRMFAYFRRNAATWKNAVRHNLSLHKCFVRVENVKGAVWTVDEVEFQKRRPQKISGNPSLIKNMQSSHAYCTPLNAALQASMAENSIPLYTTASMGNPTLGNLASAIREELNGAMEHTNSNESDSSPGRSPMQAVHPVHVKEEPLDPEEAEGPLSLVTTANHSPDFDHDRDYEDEPVNEDME
notes: FOXP1, human, full length; Vector pGEX-4T-1; also called GST-FOXP1; pGEX-4T-1-FOXP1; source: E. coli, purified
With B1, the binding result is given as “binds”.
